The text below walks through data of the Human Domainome abundance scans (Beltran et al. 2025).

± gives the uncertainty stated by the source.

B1: POU domain, class 3, transcription factor 3, residues 320 to 388; numbered along this chain, P20264 (parent)
chain: DDLEQFAKQFKQRRIKLGFTQADVGLALGTLYGNVFSQTTICRFEALQLSFKNMCKLKPLLNKWLEEAD

The series covers variants of B1. As to the kind of experiment: abundance fitness (aPCA) (normalised: wild type 0, dead -1); higher = more abundant; growth selection in yeast, the domain comes from the species named. Conditions: Homo sapiens.
In the case of DDLEQFAKQFKQRRIKLGFTKADVGLALGTLYGNVFSQTTICRFEALQLSFKNMCKLKPLLNKWLEEAD [Q21K], the abundance fitness was -0.298 ± 0.18. With DDLEQFAKQFKQRRIKLGFTIADVGLALGTLYGNVFSQTTICRFEALQLSFKNMCKLKPLLNKWLEEAD [Q21I], the abundance fitness was 0.145 ± 0.28.

Regarding DDLEQFAKQFKQRRIKLNFTQADVGLALGTLYGNVFSQTTICRFEALQLSFKNMCKLKPLLNKWLEEAD [G18N], the abundance fitness is -0.029 ± 0.13. To DDLEQFAKQFKQRRIKLWFTQADVGLALGTLYGNVFSQTTICRFEALQLSFKNMCKLKPLLNKWLEEAD [G18W] belongs -1.06 ± 0.43; to DDLEQFAKQFKQRRIKLRFTQADVGLALGTLYGNVFSQTTICRFEALQLSFKNMCKLKPLLNKWLEEAD [G18R], -0.532 ± 0.12. To DDLEQFAKQFKQRRIKLMFTQADVGLALGTLYGNVFSQTTICRFEALQLSFKNMCKLKPLLNKWLEEAD [G18M] belongs -0.778 ± 0.18. For DDLEQFAKQFKQRRIKLHFTQADVGLALGTLYGNVFSQTTICRFEALQLSFKNMCKLKPLLNKWLEEAD [G18H], the abundance fitness was -0.749 ± 0.23.

Consider DDLEQFAKQFKQRRIKLQFTQADVGLALGTLYGNVFSQTTICRFEALQLSFKNMCKLKPLLNKWLEEAD [G18Q], for which the abundance fitness was -0.785 ± 0.32. To DDLEQFAKQFKQRRIKLLFTQADVGLALGTLYGNVFSQTTICRFEALQLSFKNMCKLKPLLNKWLEEAD [G18L] belongs -0.935 ± 0.31.

Consider DDLEQFAKQFKQRRIKLAFTQADVGLALGTLYGNVFSQTTICRFEALQLSFKNMCKLKPLLNKWLEEAD [G18A], for which the abundance fitness is -0.542 ± 0.2. Take DDLEQFAKQFKQRRIKLKFTQADVGLALGTLYGNVFSQTTICRFEALQLSFKNMCKLKPLLNKWLEEAD [G18K]: the abundance fitness is -0.546 ± 0.22. With DDLEQFAKQFKQRRIKLPFTQADVGLALGTLYGNVFSQTTICRFEALQLSFKNMCKLKPLLNKWLEEAD [G18P], the abundance fitness is -0.964 ± 0.28. To DDLEQFAKQFKQRRIKLEFTQADVGLALGTLYGNVFSQTTICRFEALQLSFKNMCKLKPLLNKWLEEAD [G18E] belongs -0.893 ± 0.44; to DDLEQFAKQFKQRRIKLSFTQADVGLALGTLYGNVFSQTTICRFEALQLSFKNMCKLKPLLNKWLEEAD [G18S], -0.906 ± 0.21.

Take DDLEQFAKQFKQRRIKLVFTQADVGLALGTLYGNVFSQTTICRFEALQLSFKNMCKLKPLLNKWLEEAD [G18V]: the abundance fitness is -0.851 ± 0.19. Regarding DDLEQFAKQFKQRRICLGFTQADVGLALGTLYGNVFSQTTICRFEALQLSFKNMCKLKPLLNKWLEEAD [K16C], the abundance fitness is -0.543 ± 0.4.

As for DDLEQFAKQFKQRRITLGFTQADVGLALGTLYGNVFSQTTICRFEALQLSFKNMCKLKPLLNKWLEEAD [K16T], the abundance fitness came to 0.021 ± 0.32. The figure for DDLEQFAKQFKQRRIYLGFTQADVGLALGTLYGNVFSQTTICRFEALQLSFKNMCKLKPLLNKWLEEAD [K16Y] is -0.088 ± 0.3; for DDLEQFAKQFKQRRIWLGFTQADVGLALGTLYGNVFSQTTICRFEALQLSFKNMCKLKPLLNKWLEEAD [K16W] it is -0.696 ± 0.17. The figure for DDLEQFAKQFKQRRIMLGFTQADVGLALGTLYGNVFSQTTICRFEALQLSFKNMCKLKPLLNKWLEEAD [K16M] is -0.282 ± 0.15. To DDLEQFAKQFKQRRIALGFTQADVGLALGTLYGNVFSQTTICRFEALQLSFKNMCKLKPLLNKWLEEAD [K16A] belongs 0.004 ± 0.16; to DDLEQFAKQFKQRRILLGFTQADVGLALGTLYGNVFSQTTICRFEALQLSFKNMCKLKPLLNKWLEEAD [K16L], -0.064 ± 0.087; to DDLEQFAKQFKQRRIELGFTQADVGLALGTLYGNVFSQTTICRFEALQLSFKNMCKLKPLLNKWLEEAD [K16E], -0.382 ± 0.15.

DDLEQFAKQFKQRRIDLGFTQADVGLALGTLYGNVFSQTTICRFEALQLSFKNMCKLKPLLNKWLEEAD [K16D]: the abundance fitness was -0.102 ± 0.14.

Turning to DDLEQFAKQFKQRRIFLGFTQADVGLALGTLYGNVFSQTTICRFEALQLSFKNMCKLKPLLNKWLEEAD [K16F], the abundance fitness is -0.569 ± 0.37. To DDLEQFAKQFKQRRISLGFTQADVGLALGTLYGNVFSQTTICRFEALQLSFKNMCKLKPLLNKWLEEAD [K16S] belongs -0.33 ± 0.17. The figure for DDLEQFAKQFKQRRIQLGFTQADVGLALGTLYGNVFSQTTICRFEALQLSFKNMCKLKPLLNKWLEEAD [K16Q] is -0.043 ± 0.16; for DDLEQFAKQFKQRRIRLGFTQADVGLALGTLYGNVFSQTTICRFEALQLSFKNMCKLKPLLNKWLEEAD [K16R] it is -0.088 ± 0.072. As to DDLEQFAKQFKQRRIKLGKTQADVGLALGTLYGNVFSQTTICRFEALQLSFKNMCKLKPLLNKWLEEAD [F19K], the abundance fitness was -0.426 ± 0.19. For DDLEQFAKQFKQRRIKLGITQADVGLALGTLYGNVFSQTTICRFEALQLSFKNMCKLKPLLNKWLEEAD [F19I], the abundance fitness turned out to be 0.119 ± 0.18. Regarding DDLEQFAKQFKQRRIKLGRTQADVGLALGTLYGNVFSQTTICRFEALQLSFKNMCKLKPLLNKWLEEAD [F19R], the abundance fitness was -0.466 ± 0.19. The figure for DDLEQFAKQFKQRRIKLGVTQADVGLALGTLYGNVFSQTTICRFEALQLSFKNMCKLKPLLNKWLEEAD [F19V] is -0.236 ± 0.11.

With DDLEQFAKQFKQRRIKLGLTQADVGLALGTLYGNVFSQTTICRFEALQLSFKNMCKLKPLLNKWLEEAD [F19L], the abundance fitness is -0.202 ± 0.1. As for DDLEQFAKQFKQRRIKLGETQADVGLALGTLYGNVFSQTTICRFEALQLSFKNMCKLKPLLNKWLEEAD [F19E], the abundance fitness was -0.495 ± 0.43.

As for DDLEQFAKQFKQRRIKLGATQADVGLALGTLYGNVFSQTTICRFEALQLSFKNMCKLKPLLNKWLEEAD [F19A], the abundance fitness is -0.243 ± 0.12.

Take DDLEQFAKQFKQRRIKLGPTQADVGLALGTLYGNVFSQTTICRFEALQLSFKNMCKLKPLLNKWLEEAD [F19P]: the abundance fitness is -0.625 ± 0.3. The figure for DDLEQFAKQFKQRRIKLGSTQADVGLALGTLYGNVFSQTTICRFEALQLSFKNMCKLKPLLNKWLEEAD [F19S] is -0.848 ± 0.3; for DDLEQFAKQFKQRRIKLGGTQADVGLALGTLYGNVFSQTTICRFEALQLSFKNMCKLKPLLNKWLEEAD [F19G] it is -1.03 ± 0.38; for DDLEQFAKQFKQRRIKLGWTQADVGLALGTLYGNVFSQTTICRFEALQLSFKNMCKLKPLLNKWLEEAD [F19W] it is -0.408 ± 0.2.
